Measured values published in PMC6303335 (2018).

Biological target: E194, the type I interferon binding protein (IFNα/βBP) from ectromelia virus (ECTV) Naval strain (Ectromelia virus, strain Naval)
Test: SPR

B1: mouse IFNα subtype A (ligand)
chain: CDLPHTYNLRNKRALKVLAQMRRLPFLSCLKDRQDFGFPLEKVDNQQIQKAQAIPVLRDLTQQTLNLFTSKASSAAWNATLLDSFCNDLHQQLNDLQTCLMQQVGVQEPPLTQEDALLAVRKYFHRITVYLREKKHSPCAWEVVRAEVWRALSSSVNLLPRLSEEKE
B1 showed a koff of 0.000331 s⁻¹.
